The numbers were not newly measured in article PMC6962051, which cites them from elsewhere.

In the series the target is linear di-ubiquitin (Homo sapiens) (UniProt P0CG47). The experiment in a line: isothermal titration calorimetry. A general note: In ITC the heat of successive injections is recorded.

Chain of NEMO CoZi (Q9Y6K9 258-350): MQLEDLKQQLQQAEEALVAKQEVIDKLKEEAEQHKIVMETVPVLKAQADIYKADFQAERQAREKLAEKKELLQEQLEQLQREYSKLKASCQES

As for NEMO CoZi (from UniProt Q9Y6K9), the Kd is 2400 nM.

In general, Kd refers to the constant that tells how readily two partners part at equilibrium.
